This note sets out measurements from patent US20230250181A1 (published 2023).

The target of assay [1] is T1, recombinant biotinylated PD1/CD279 protein from Biolegend (789406) (UniProt Q15116 25-167, limits assumed, biotinylated).
T1 construct: also called PD1/CD279 ligand
Description: ELISA; antibody coated on plate, biotinylated PD-1 titrated, streptavidin-HRP. The method, then:
The interaction of the unmodified and of conjugated anti-PD1 antibodies with PD-1 (CD279) were measured by ELISA assay. For these studies, Corning high-binding half-area plates (Fisher Scientific, Reinach, Switzerland) were coated overnight at 4° C. with 25 μl of unmodified or conjugated anti-PD1 antibodies at 2.5 μg/ml in PBS. Plates were then washed four times with 100 μl of PBS-0.02% Tween20. Plate surfaces were blocked with 25 μl of PBS-0.02% Tween20-1% BSA at 37° C. during 1 h. Plates were then washed four times with 100 μl of PBS-0.02% Tween20. […] Plates were then washed four times with 100 μl of PBS-0.02% Tween20. Twenty-five microliters of Streptavidin-Horseradish peroxidase (#RABHRP3, Merck, Buchs, Switzerland) diluted at 1:500 in PBS-0.02% Tween20-0.1% BSA were added to each well and incubated at Room Temperature during 30 min. Plates were then washed four times with 100 μl of PBS-0.02% Tween20. Fifty microliters of TMB substrate reagent (#CL07, Merck, Buchs, Switzerland) were added to each well and incubated at 37° C. during 5 min. After 5 min at 37° C., Horseradish peroxidase reaction was stopped by adding 50 μl/well of 0.5M H₂SO₄ stop solution. ELISA signal was then measured at 450 nm on an EnSpire plate reader from Perkin Elmer (Schwerzenbach, Switzerland).
(In an ELISA, binding on a coated surface is turned into a signal by an enzyme label.)

For assay [2], the target named is T2, recombinant biotinylated human FcRn (human, UniProt P55899 24-297, limits assumed, biotinylated).
T2 construct: also called human neonatal Fc receptor
In words: AlphaLISA competition at pH 6; test molecule competes with human IgG acceptor beads for biotinylated human FcRn. The method, then: The interaction of the unmodified and of conjugated anti-PD1 antibodies with the human neonatal Fc receptor (FcRn) at pH 6 was measured using the AlphaLISA® Human FcRn Binding Kit (AL3095C) from Perkin Elmer (Schwerzenbach, Switzerland).
After 90 min at 23° C. in the dark, AlphaLISA® signal was measured on an EnSpire plate reader (Excitation at 680 nm, Emission at 615 nm) from Perkin Elmer (Schwerzenbach, Switzerland).
A general note: In Alpha technology, singlet oxygen from a donor bead excites a nearby acceptor bead.

Assay [3] addresses T3, recombinant Human Fc gamma RIIIA/CD16a Protein (R&D systems, 4325-FC-050; CF) (human, UniProt P08637 17-208, limits assumed).
T3 construct: Bought protein; also called FcγRIIIa; FcgRIIIa
In words: ELISA; antibody coated on plate, recombinant receptor titrated. The method, then:
(§1) The interaction of the unmodified and of conjugated anti-PD1 antibodies with human Fc gamma receptors I (FcγRI/CD64), with human Fc gamma receptors Ha (FcγRIIa/CD32a), with inhibitory human Fc gamma receptors IIb (FcγRIIb/CD32b), and with human Fc gamma receptors III FcγR3a/CD16 were measured by ELISA. Briefly, Corning high-binding half-area plates (Fisher Scientific, Reinach, Switzerland) were coated overnight at 4° C. with 25 μl of unmodified and of conjugated anti-PD1 antibodies at 2.5 μg/ml in PBS. Plates were then washed four times with 100 μl of PBS-0.02% Tween20. Plates surfaces were blocked with 25 μl of PBS-0.02% Tween20-1% BSA at 37° C. during 1 h. Plates were then washed four times with 100 μl of PBS-0.02% Tween20. Then twenty-five microliters of either recombinant Human Fc gamma RI/CD64 Protein (R&D systems, 1257-FC-050, CF), recombinant Human Fc gamma RIIA/CD32a (H167) Protein (R&D systems, 9595-CD-050, CF), recombinant Human Fc gamma RIIB/CD32b Avi-tag Protein (R&D systems, AVI1875-050, CF), or recombinant Human Fc gamma RIIIA/CD16a Protein (R&D systems, 4325-FC-050; CF) were added in five-fold serial dilutions ranging from 1000 nM to 0.001 nM into PBS-0.02% Tween20-0.1% BSA and incubated at 37° C. during 2 h. […] ELISA signal was then measured at 450 nm on an EnSpire plate reader from Perkin Elmer (Schwerzenbach, Switzerland). […]

Assay [4] addresses T4, recombinant Human Fc gamma RI/CD64 Protein (R&D systems, 1257-FC-050, CF) (human, UniProt P12314 16-288).
T4 construct: Bought protein; also called FcγRI; FcgRI
The assay is described as above. Here is the method:
as §1

T1 sequence (Q15116 25-167 limits assumed): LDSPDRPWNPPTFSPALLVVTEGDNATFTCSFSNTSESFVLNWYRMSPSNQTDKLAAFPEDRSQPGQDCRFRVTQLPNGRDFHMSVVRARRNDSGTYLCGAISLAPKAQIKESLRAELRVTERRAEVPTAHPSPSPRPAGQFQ
T2 sequence (P55899 24-297 limits assumed, form in doubt): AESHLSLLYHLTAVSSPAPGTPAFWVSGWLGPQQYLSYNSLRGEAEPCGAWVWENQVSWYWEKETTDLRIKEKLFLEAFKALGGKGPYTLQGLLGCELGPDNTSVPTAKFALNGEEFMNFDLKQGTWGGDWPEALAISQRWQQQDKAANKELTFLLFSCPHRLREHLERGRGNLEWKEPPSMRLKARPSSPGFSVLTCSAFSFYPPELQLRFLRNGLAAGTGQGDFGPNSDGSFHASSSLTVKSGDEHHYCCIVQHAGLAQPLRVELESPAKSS
T4 sequence (P12314 16-288 limits assumed): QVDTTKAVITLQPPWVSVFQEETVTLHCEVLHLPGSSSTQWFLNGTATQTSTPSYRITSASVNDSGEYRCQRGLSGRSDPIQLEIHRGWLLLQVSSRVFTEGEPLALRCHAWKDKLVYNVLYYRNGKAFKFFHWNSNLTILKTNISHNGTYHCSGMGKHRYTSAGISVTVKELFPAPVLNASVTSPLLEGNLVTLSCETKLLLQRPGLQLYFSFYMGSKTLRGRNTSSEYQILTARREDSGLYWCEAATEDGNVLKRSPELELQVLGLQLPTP
T3 sequence (P08637 17-208 limits assumed): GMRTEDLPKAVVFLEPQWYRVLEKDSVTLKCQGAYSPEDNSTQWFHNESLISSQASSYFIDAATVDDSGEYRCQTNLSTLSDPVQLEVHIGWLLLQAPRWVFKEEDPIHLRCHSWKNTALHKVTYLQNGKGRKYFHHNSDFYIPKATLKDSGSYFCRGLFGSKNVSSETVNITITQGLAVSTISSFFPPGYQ

B1: Composition K (antibody)
VH: QVQLVQSGAEVKKPGASVKVSCKASGYTFTSYYMYWVRQAPGQGLEWMGGVNPSNGGTNFNEKFKSRVTITADKSTSTAYMELSSLRSEDTAVYYCARRDYRYDMGFDYWGQGTTVTVSS
VL: EIVLTQSPATLSLSPGERATISCRASKGVSTSGYSYLHWYQQKPGQAPRLLIYLASYLESGVPARFSGSGSGTDFTLTISSLEPEDFATYYCQHSRELPLTFGTGTKVEIK
chain: APTSSSTKKTQLQLEHLLLDLQXILNGINNYKNPKLTRXLXYKFYXPKKATELKHLQCLEEELKPLEEVLXLAQSKNFHLRPRDLISNINVIVLELKGSETTFXCEYADETATIVEFLNRWITFSQSIISTLT
modifications: not fully specified; Composition AB: Nle at 23, 39, 46; Hse at 41, 71, 104; ~0.5 kDa PEG on Y45; 0.5 kDa PEG capped with azide on F42Y, reacted with DBCO on K288 (EU numbering) of the antibody's Fc region
notes: Immunocytokine; linker at K288 of the Fc region
For orientation: Kd means the constant that tells how readily two partners part at equilibrium. On to B1, for which, in assay [1], the dissociation constant Kd was found to be 41 µM.

B2: LZM-009 (antibody, V domains shown)
VH: QVQLVQSGAEVKKPGASVKVSCKASGYTFTSYYMYWVRQAPGQGLEWMGGVNPSNGGTNFNEKFKSRVTITADKSTSTAYMELSSLRSEDTAVYYCARRDYRYDMGFDYWGQGTTVTVSS
VL: EIVLTQSPATLSLSPGERATISCRASKGVSTSGYSYLHWYQQKPGQAPRLLIYLASYLESGVPARFSGSGSGTDFTLTISSLEPEDFATYYCQHSRELPLTFGTGTKVEIK
As to B2, in assay [1], the Kd stood at 35 µM.

B3: Composition J (antibody)
VH: QVQLVQSGAEVKKPGASVKVSCKASGYTFTSYYMYWVRQAPGQGLEWMGGVNPSNGGTNFNEKFKSRVTITADKSTSTAYMELSSLRSEDTAVYYCARRDYRYDMGFDYWGQGTTVTVSS
VL: EIVLTQSPATLSLSPGERATISCRASKGVSTSGYSYLHWYQQKPGQAPRLLIYLASYLESGVPARFSGSGSGTDFTLTISSLEPEDFATYYCQHSRELPLTFGTGTKVEIK
chain: APTSSSTKKTQLQLEHLLLDLQXILNGINNYKNPKLTRXLXYKFYXPKKATELKHLQCLEEELKPLEEVLXLAQSKNFHLRPRDLISNINVIVLELKGSETTFXCEYADETATIVEFLNRWITFSQSIISTLT
modifications: not fully specified; Composition AB: Nle at 23, 39, 46; Hse at 41, 71, 104; ~0.5 kDa PEG on Y45; 0.5 kDa PEG capped with azide on F42Y, reacted with DBCO on K288 (EU numbering) of the antibody's Fc region
notes: Immunocytokine; linker at K288 of the Fc region, DAR 1; also called LZM-009 conjugated to Composition AB, DAR 1, K288
Regarding B3, the equilibrium dissociation constant (Kd) in assay [1] was 27 µM.

B4: Composition H (antibody)
VH: QVQLVQSGAEVKKPGASVKVSCKASGYTFTSYYMYWVRQAPGQGLEWMGGVNPSNGGTNFNEKFKSRVTITADKSTSTAYMELSSLRSEDTAVYYCARRDYRYDMGFDYWGQGTTVTVSS
VL: EIVLTQSPATLSLSPGERATISCRASKGVSTSGYSYLHWYQQKPGQAPRLLIYLASYLESGVPARFSGSGSGTDFTLTISSLEPEDFATYYCQHSRELPLTFGTGTKVEIK
chain: APTSSSTKKTQLQLEHLLLDLQXILNGINNYKNPKLTRXLXYKFYXPKKATELKHLQCLEEELKPLEEVLXLAQSKNFHLRPRDLISNINVIVLELKGSETTFXCEYADETATIVEFLNRWITFSQSIISTLT
modifications: not fully specified; Composition AB: Nle at 23, 39, 46; Hse at 41, 71, 104; ~0.5 kDa PEG on Y45; 0.5 kDa PEG capped with azide on F42Y, reacted with DBCO on K248 (EU numbering) of the antibody's Fc region
notes: Immunocytokine; linker at K248 of the Fc region, DAR 1; also called LZM-009 conjugated to Composition AB, DAR 1, K248
As for B4, the equilibrium dissociation constant (Kd) in assay [1] worked out at 37 µM.

B5: Pembrolizumab (antibody, human IgG4 S228P, kappa)
heavy: not shown
light: EIVLTQSPATLSLSPGERATLSCRASKGVSTSGYSYLHWYQQKPGQAPRLLIYLASYLESGVPARFSGSGSGTDFTLTISSLEPEDFAVYYCQHSRDLPLTFGGGTKVEIKRTVAAPSVFIFPPSDEQLKSGTASVVCLLNNFYPREAKVQWKVDNALQSGNSQESVTEQDSKDSTYSLSSTLTLSKADYEKHKVYACEVTHQGLSSPVTKSFNRGEC
notes: also called Lambrolizumab
Take B5: the Kd in assay [2] was 0.00731 µM; in assay [3], 0.289 µM; in assay [4], 0.000488 µM.
